“And” between values parts separate entries of the source, which are not always exact repeats. Equal entries are not always repeated. ± gives the uncertainty stated by the source.
B1: library; the commonest letter at each place (parent)
chain: MKPVTLYDVAEYAGVSYQTVSRVVNQASHVSAKTREKVEAAMAELNYIPNRVAQQLAGKQSLLIGVATSSLALHAPSQIVAAIKSRADQLGASVVVSMVERSGVEACKAAVHNLLAQRVSGLIINYPLDDQDAIAVEAACTNVPALFLDVSDQTPINSIIFSHEDGTRLGVEHLVALGHQQIALLAGPLSSVSARLRLAGWHKYLTRNQIQPIAEREGDWSAMSGFQQTMQMLNEGIVPTAMLVANDQMALGAMRAITESGLRVGADISVVGYDDTEDSSCYIPPLTTIKQDFRLLGQTSVDRLLQLSQGQAVKGNQLLPVSLVKRKTTLAPNTQTASPRALADSLMQLARQVSRLESGQ

Experiments:
Conditions in all cases: with IPTG
IPTG [1] = variants of: B1
Protocol: (§1)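 LacI variants on the pVER plasmid regulate eYFP behind lacO in E. coli MG1655Δlac, grown in rich M9 at 37 °C with a 2-fold IPTG dilution series. After two 160-min growth steps, YFP is read by flow cytometry and calibrated to MEF. Bayesian MCMC fits of the Hill equation give G0, G∞, EC50 and n (posterior mean ± SD).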

IPTG [2] = variants of: B1; assay: Hill coefficient n (dimensionless); higher = steeper dose response
Protocol: as §1

IPTG [3] = variants of: B1; assay: basal output G0 (YFP, no IPTG) (log10 MEF); higher = higher reporter expression without inducer
Protocol: as §1

IPTG [4] = variants of: B1; assay: saturating output G-infinity (YFP) (log10 MEF); higher = higher reporter expression at saturating IPTG
Protocol: as §1

Variant | EC50 for IPTG (log10 µmol/L) (IPTG [1]) | Hill coefficient n (IPTG [2]) | basal output G0 (log10) (IPTG [3]) | saturating output G-infinity (log10) (IPTG [4])
Q291L | 2.064 ± 0.017 | 1.61 ± 0.052 | 2.22 ± 0.21 | 4.407 ± 0.0075
V80L L169P | 2.47 ± 0.026 | 1.2 ± 0.077 | 1.86 ± 0.58 | 3.696 ± 0.0083
S69T V80L | 1.75 ± 0.025 | 1.38 ± 0.066 | 1.09 ± 0.68 | 4.182 ± 0.0044
D130E | 1.902 ± 0.012 | 1.76 ± 0.057 | 2.29 ± 0.45 | 4.467 ± 0.0052
L56M D130E | 0.886 ± 0.058 | 1.42 ± 0.21 | 4.026 ± 0.027 | 4.51 ± 0.011
E11K A67P F161S A186V M230L D344N | 0.815 ± 0.031 | 1.44 ± 0.11 | 3.548 ± 0.033 | 4.236 ± 0.006
H74Y A92V H112L S151T D165N H179Q | 1.29 ± 0.014 | 1.54 ± 0.049 | 4.426 ± 0.0049 | 3.262 ± 0.017
G103D H202Y P284T | 1.5 ± 0.016 | 1.64 ± 0.075 | 2.85 ± 0.11 | 4.458 ± 0.0062
S70R V136E | 1.841 ± 0.017 | 1.69 ± 0.085 | 4.55 ± 0.0061 | 3.806 ± 0.01
A82G | 2.576 ± 0.011 | 1.3 ± 0.021 | 2.51 ± 0.036 | 4.414 ± 0.0045
A82V | 1.93 ± 0.025 | 1.51 ± 0.075 | 1.71 ± 0.7 | 4.252 ± 0.01
Q231R | 2.063 ± 0.0082 | 1.67 ± 0.03 | 2.29 ± 0.081 | 4.3759 ± 0.0039
I83M V136E | 1.48 ± 0.029 | 1.21 ± 0.075 | 4.519 ± 0.0083 | 3.789 ± 0.011
V136E S279T | 0.991 ± 0.11 | 2.42 ± 0.69 | 3.916 ± 0.02 | 4.035 ± 0.0064
V80L I83M | 2.444 ± 0.013 | 1.37 ± 0.045 | 0.521 ± 0.46 | 3.718 ± 0.0043
S70R A87P V301M E357G | 3.59 ± 0.015 | 1.66 ± 0.081 | 4.5727 ± 0.004 | 3.672 ± 0.019
L56M | 1.05 ± 0.033 | 1.39 ± 0.12 | 3.976 ± 0.018 | 4.548 ± 0.0075
S69T I83M | 2.293 ± 0.009 | 1.48 ± 0.033 | 1.02 ± 0.61 | 4.2699 ± 0.0031
S77P E105V | 2.049 ± 0.0095 | 1.59 ± 0.043 | 2.53 ± 0.067 | 4.1995 ± 0.004
K84E D88Y L90P Q153L A199V L342M R351P S358R | 1.47 ± 0.046 | 0.795 ± 0.045 | 4.34 ± 0.01 | 3.722 ± 0.01
S70R F161V | 2.02 ± 0.013 | 1.29 ± 0.039 | 3.01 ± 0.037 | 4.3852 ± 0.0042

Variant | EC50 for IPTG (log10 µmol/L) (IPTG [1]) | Hill coefficient n (IPTG [2]) | basal output G0 (log10) (IPTG [3]) | saturating output G-infinity (log10) (IPTG [4])
E44D R101G R303S R355L | 1.62 ± 0.023 | 1.53 ± 0.093 | 2.44 ± 0.76 | 4.461 ± 0.0089
S93N V99E S102R L198Q S260F A337S | 0.634 ± 0.024 | 1.31 ± 0.088 | 3.834 ± 0.012 | 4.443 ± 0.0046
V80L A87P V301M E357G | 1.57 ± 0.045 | 1.15 ± 0.079 | 4.52 ± 0.015 | 3.493 ± 0.02
V80L I83M S97T | 1.986 ± 0.0056 | 1.55 ± 0.025 | 1.99 ± 0.077 | 3.8535 ± 0.0021
I83F G200C | 1.913 ± 0.0091 | 1.48 ± 0.032 | 3.03 ± 0.023 | 4.4658 ± 0.0031
K203N D278V S280L I283V | 1.8 ± 0.022 | 1.73 ± 0.085 | 3.192 ± 0.021 | 4.401 ± 0.009
Q317L | 2.051 ± 0.0097 | 1.66 ± 0.041 | 2.08 ± 0.5 | 4.4477 ± 0.0044
Q55H D130E V192A T258I D267N Y273H N333I | 2.889 ± 0.028 | 1.39 ± 0.097 | 4.402 ± 0.0063 | 3.681 ± 0.016
V80L V96E T154I S158R V238D M254I V264I | 1.68 ± 0.055 | 1.16 ± 0.085 | 4.207 ± 0.016 | 3.07 ± 0.031
G200C | 2.729 ± 0.016 | 1.58 ± 0.049 | 1.48 ± 0.68 | 4.489 ± 0.0069
A72V K84N I210F M254T T336S | 0.962 ± 0.049 | 0.934 ± 0.078 | 4.369 ± 0.0082 | 4.067 ± 0.0058
L90Q L198M E235D T336S | 1.88 ± 0.022 | 1.61 ± 0.073 | 2.51 ± 0.2 | 4.423 ± 0.0091
E100V T299I | 0.9867 ± 0.0075 | 1.54 ± 0.032 | 3.09 ± 0.037 | 4.4562 ± 0.0024
S70R V150A S190T F226L | 0.971 ± 0.021 | 1.48 ± 0.089 | 3.37 ± 0.035 | 4.221 ± 0.0049
V95M A337T | 2.109 ± 0.018 | 1.59 ± 0.082 | 2.13 ± 0.64 | 4.23 ± 0.0081
L56M A194V | 2.393 ± 0.016 | 1.42 ± 0.045 | 3.9036 ± 0.0036 | 4.549 ± 0.0059
I83M S97T V136E | 2.29 ± 0.05 | 0.765 ± 0.058 | 4.52 ± 0.0074 | 4.113 ± 0.012
M42L V66I S93N D132V | 1.646 ± 0.0068 | 1.59 ± 0.033 | 2.55 ± 0.058 | 4.1768 ± 0.0024
V136E F161V | 3.713 ± 0.031 | 1.84 ± 0.2 | 4.516 ± 0.0031 | 4.229 ± 0.011
S70R V96E T154I S158R V238D M254I V264I | 3.671 ± 0.018 | 3 ± 0.23 | 4.516 ± 0.0061 | 3.396 ± 0.026
S70R | 1.42 ± 0.021 | 1.44 ± 0.064 | 2.58 ± 0.09 | 4.22 ± 0.0077

Variant | EC50 for IPTG (log10 µmol/L) (IPTG [1]) | Hill coefficient n (IPTG [2]) | basal output G0 (log10) (IPTG [3]) | saturating output G-infinity (log10) (IPTG [4])
S120G M223L F226L L319F R355L | 2.248 ± 0.015 | 1.51 ± 0.035 | 2.781 ± 0.021 | 4.407 ± 0.0067
S69T L169P | 2.348 ± 0.019 | 1.43 ± 0.062 | 2.68 ± 0.082 | 4.362 ± 0.0071
K2R A92V R195P D278G | 2.91 ± 0.042 | 2.03 ± 0.12 | 3.086 ± 0.01 | 4.436 ± 0.04
S70R Q181H | 1.49 ± 0.03 | 1.46 ± 0.12 | 2.55 ± 0.62 | 4.269 ± 0.011
S70R S97T F161V | 1.71 ± 0.068 | 1.16 ± 0.12 | 3.29 ± 0.059 | 4.429 ± 0.023
V94M S190C G200A Q209R R263H Q317L | 1.44 ± 0.025 | 1.4 ± 0.072 | 3.418 ± 0.023 | 4.454 ± 0.0086
A72V A110V N142D S322L | 0.557 ± 0.022 | 1.42 ± 0.1 | 3.778 ± 0.015 | 4.443 ± 0.0049
S69T S279T | 1.28 ± 0.013 | 1.56 ± 0.053 | 2.7 ± 0.11 | 4.428 ± 0.0047
S70R I83F | 1.24 ± 0.028 | 1.36 ± 0.079 | 3.18 ± 0.04 | 4.347 ± 0.0092
S69T S97T | 1.37 ± 0.019 | 1.55 ± 0.059 | 2.65 ± 0.11 | 4.496 ± 0.0072
G91D V94A R101G S158C T167M E172D A176S F226Y T276S T299A | 2.31 ± 0.027 | 1.25 ± 0.063 | 4.329 ± 0.0062 | 3.63 ± 0.0095
S70R Q231R | 1.509 ± 0.0064 | 1.47 ± 0.025 | 2.67 ± 0.037 | 4.251 ± 0.0022
L90Q R101G C140G L169Q K290I T329S | 1.57 ± 0.01 | 1.54 ± 0.041 | 3.06 ± 0.033 | 4.4822 ± 0.004
V80L S97T | 1.611 ± 0.0061 | 1.57 ± 0.031 | 2.33 ± 0.069 | 4.0264 ± 0.0022
S28G T34M Q60R A81S E100K L148V S221N V271L | 0.477 and 0.475 | 1.41 and 2.02 | 3.92 | 4.46 and 4.41
V94L V99I V104I L307F | 1.47 ± 0.02 | 1.56 ± 0.1 | 2.75 ± 0.26 | 4.204 ± 0.0067
S69T I83M S97T | 1.957 ± 0.0053 | 1.61 ± 0.017 | 1.17 ± 0.54 | 4.4073 ± 0.0024
S70R V271M | 1.521 ± 0.012 | 1.46 ± 0.044 | 2.7 ± 0.066 | 4.268 ± 0.0045
S97T | 1.59 ± 0.023 | 1.58 ± 0.067 | 2.61 ± 0.16 | 4.572 ± 0.01
V301M | 1.82 ± 0.049 | 1.53 ± 0.16 | 2.32 ± 0.83 | 4.469 ± 0.021
V80L | 2.098 ± 0.0098 | 1.52 ± 0.036 | 1.75 ± 0.28 | 3.914 ± 0.0043
